Measurements taken from publication PMC11612440 (2024).
Like-named read-outs stand apart in the source and are kept apart here.

Legend:
[1] = molecular target: T1, BCL11B protein, MBP-tag-fused recombinant (pETMBP.3C-Bcl11b) (mouse, UniProt Q99PV8 1-884); test: SPR
T1 chain: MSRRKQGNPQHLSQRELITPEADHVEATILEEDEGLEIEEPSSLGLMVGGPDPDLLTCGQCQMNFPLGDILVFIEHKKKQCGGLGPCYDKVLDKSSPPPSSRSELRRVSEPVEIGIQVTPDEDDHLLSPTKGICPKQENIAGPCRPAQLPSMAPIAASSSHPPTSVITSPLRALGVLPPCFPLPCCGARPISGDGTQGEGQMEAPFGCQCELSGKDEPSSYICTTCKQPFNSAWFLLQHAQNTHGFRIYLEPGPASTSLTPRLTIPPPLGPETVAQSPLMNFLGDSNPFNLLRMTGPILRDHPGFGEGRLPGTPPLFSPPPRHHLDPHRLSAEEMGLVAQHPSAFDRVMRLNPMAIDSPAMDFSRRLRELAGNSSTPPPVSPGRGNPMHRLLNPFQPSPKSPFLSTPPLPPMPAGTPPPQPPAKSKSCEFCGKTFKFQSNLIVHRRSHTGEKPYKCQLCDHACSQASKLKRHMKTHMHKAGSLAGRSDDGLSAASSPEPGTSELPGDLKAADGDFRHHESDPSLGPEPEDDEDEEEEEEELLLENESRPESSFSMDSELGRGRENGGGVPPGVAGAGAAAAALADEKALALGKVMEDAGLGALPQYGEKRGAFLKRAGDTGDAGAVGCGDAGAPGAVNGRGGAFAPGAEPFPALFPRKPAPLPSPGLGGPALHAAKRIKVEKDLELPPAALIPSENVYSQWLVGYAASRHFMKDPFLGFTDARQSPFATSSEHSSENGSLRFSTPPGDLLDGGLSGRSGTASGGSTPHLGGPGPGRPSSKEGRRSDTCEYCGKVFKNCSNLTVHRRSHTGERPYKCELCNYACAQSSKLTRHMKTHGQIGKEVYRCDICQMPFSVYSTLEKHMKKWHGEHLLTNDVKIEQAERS

[2] = molecular target: T1, BCL11B protein, MBP-tag-fused …; test: SPR

B1: β-catenin, MBP-tag-fused recombinant (pETMBP.3C-β-catenin) (natural protein)
chain: MATQADLMELDMAMEPDRKAAVSHWQQQSYLDSGIHSGATTTAPSLSGKGNPEEEDVDTSQVLYEWEQGFSQSFTQEQVADIDGQYAMTRAQRVRAAMFPETLDEGMQIPSTQFDAAHPTNVQRLAEPSQMLKHAVVNLINYQDDAELATRAIPELTKLLNDEDQVVVNKAAVMVHQLSKKEASRHAIMRSPQMVSAIVRTMQNTNDVETARCTAGTLHNLSHHREGLLAIFKSGGIPALVKMLGSPVDSVLFYAITTLHNLLLHQEGAKMAVRLAGGLQKMVALLNKTNVKFLAITTDCLQILAYGNQESKLIILASGGPQALVNIMRTYTYEKLLWTTSRVLKVLSVCSSNKPAIVEAGGMQALGLHLTDPSQRLVQNCLWTLRNLSDAATKQEGMEGLLGTLVQLLGSDDINVVTCAAGILSNLTCNNYKNKMMVCQVGGIEALVRTVLRAGDREDITEPAICALRHLTSRHQEAEMAQNAVRLHYGLPVVVKLLHPPSHWPLIKATVGLIRNLALCPANHAPLREQGAIPRLVQLLVRAHQDTQRRTSMGGTQQQFVEGVRMEEIVEGCTGALHILARDVHNRIVIRGLNTIPLFVQLLYSPIENIQRVAAGVLCELAQDKEAAEAIEAEGATAPLTELLHSRNEGVATYAAAVLFRMSEDKPQDYKKRLSVELTSSLFRTEPMAWNETADLGLDIGAQGEALGYRQDDPSYRSFHSGGYGQDALGMDPMMEHEMGGHHPGADYPVDGLPDLGHAQDLMDGLPPGDSNQLAWFDTDL
Kd [1]: 0.609 nM

B2: MBD3, MBP-tag-fused recombinant (pETMBP.3C-Mbd3) (natural protein)
chain: MERKRWECPALPQGWEREEVPRRSGLSAGHRDVFYYSPSGKKFRSKPQLARYLGGSMDLSTFDFRTGKMLMNKMNKSRQRVRYDSSNQVKGKPDLNTALPVRQTASIFKQPVTKITNHPSNKVKSDPQKAVDQPRQLFWEKKLSGLSAFDIAEELVRTMDLPKGLQGVGPGCTDETLLSAIASALHTSTLPITGQLSAAVEKNPGVWLNTAQPLCKAFMVTDDDIRKQEELVQQVRKRLEEALMADMLAHVEELARDGEAPLDKACAEEEEEEEEEEEEPEPERV
Kd [2]: 2.42 nM
